Measurements reported in publication PMC3873459.

Tests used:
[1] = target: pfiT, tag-less (GST removed with PreScission protease) (Pseudomonas fluorescens); test: AUC; sedimentation equilibrium, pfiT alone at 9 µM and 18 µM, 20°C, 20,000/25,000/30,000 rpm, HBS; global fit with monomer-dimer model (SEDPHAT); dimer to monomers
[2] = target: pfiT, tag-less (GST removed with PreScission protease) (Pseudomonas fluorescens); test: AUC; sedimentation velocity, pfiT alone at 3.6 µM, 20°C, 50,000 rpm, 10 mM Hepes pH 7.4, 150 mM NaCl, 2 mM DTT; c(s) and c(M) distributions (SEDFIT)
[3] = target: recombinant HLA-DR1 protein bound to a hemagglutinin (HA) peptide; test: pull-down

With “pfiT, tag-less (GST removed with PreScission protease) (natural protein)” as the substance, how does the Kd [1] read?
Its Kd is 0.15 µM.

What about the stoichiometry N [2] of the same substance?
Its stoichiometry N is 2.

What about the IC50 [3] of the same substance?
Its IC50 is 47 µM.
